Experimental data reported in PMC10540216, “Activity Guided Azide-methyllysine Photo-trapping for Substrate Profiling of Lysine Demethylases” (Journal of the American Chemical Society, 2023).

B1: DC1I2_HUMAN (protein, UniProt Q13409 2-638, looked up)
Cytoplasmic dynein 1 …: SDKSELKAELERKKQRLAQIREEKKRKEEERKKKETDQKKEAVAPVQEESDLEKKRREAEALLQSMGLTPESPIVFSEYWVPPPMSPSSKSVSTPSEAGSQDSGDGAVGSRTLHWDTDPSVLQLHSDSDLGRGPIKLGMAKITQVDFPPREIVTYTKETQTPVMAQPKEDEEEDDDVVAPKPPIEPEEEKTLKKDEENDSKAPPHELTEEEKQQILHSEEFLSFFDHSTRIVERALSEQINIFFDYSGRDLEDKEGEIQAGAKLSLNRQFFDERWSKHRVVSCLDWSSQYPELLVASYNNNEDAPHEPDGVALVWNMKYKKTTPEYVFHCQSAVMSATFAKFHPNLVVGGTYSGQIVLWDNRSNKRTPVQRTPLSAAAHTHPVYCVNVVGTQNAHNLISISTDGKICSWSLDMLSHPQDSMELVHKQSKAVAVTSMSFPVGDVNNFVVGSEEGSVYTACRHGSKAGISEMFEGHQGPITGIHCHAAVGAVDFSHLFVTSSFDWTVKLWTTKNNKPLYSFEDNADYVYDVMWSPTHPALFACVDGMGRLDLWNLNNDTEVPTASISVEGNPALNRVRWTHSGREIAVGDSEGQIVIYDVGEQIAVPRNDEWARFGRTLAEINANRADAEEEAATRIPA
B2: PNPT1_HUMAN (protein, UniProt Q8TCS8 46-783, looked up)
Polyribonucleotide …: AVAVDLGNRKLEISSGKLARFADGSAVVQSGDTAVMVTAVSKTKPSPSQFMPLVVDYRQKAAAAGRIPTNYLRREIGTSDKEILTSRIIDRSIRPLFPAGYFYDTQVLCNLLAVDGVNEPDVLAINGASVALSLSDIPWNGPVGAVRIGIIDGEYVVNPTRKEMSSSTLNLVVAGAPKSQIVMLEASAENILQQDFCHAIKVGVKYTQQIIQGIQQLVKETGVTKRTPQKLFTPSPEIVKYTHKLAMERLYAVFTDYEHDKVSRDEAVNKIRLDTEEQLKEKFPEADPYEIIESFNVVAKEVFRSIVLNEYKRCDGRDLTSLRNVSCEVDMFKTLHGSALFQRGQTQVLCTVTFDSLESGIKSDQVITAINGIKDKNFMLHYEFPPYATNEIGKVTGLNRRELGHGALAEKALYPVIPRDFPFTIRVTSEVLESNGSSSMASACGGSLALMDSGVPISSAVAGVAIGLVTKTDPEKGEIEDYRLLTDILGIEDYNGDMDFKIAGTNKGITALQADIKLPGIPIKIVMEAIQQASVAKKEILQIMNKTISKPRASRKENGPVVETVQVPLSKRAKFVGPGGYNLKKLQAETGVTISQVDEETFSVFAPTPSAMHEARDFITEICKDDQEQQLEFGAVYTATITEIRDTGVMVKLYPNMTAVLLHNTQLDQRKIKHPTALGLEVGQEIQVKYFGRDPADGRMRLSRKVLQSPATTVVRTLNDRSSIVMGEPISQSSSNSQ
B3: DDX3X_HUMAN (protein, UniProt O00571 2-662, looked up)
ATP-dependent RNA helicase …: SHVAVENALGLDQQFAGLDLNSSDNQSGGSTASKGRYIPPHLRNREATKGFYDKDSSGWSSSKDKDAYSSFGSRSDSRGKSSFFSDRGSGSRGRFDDRGRSDYDGIGSRGDRSGFGKFERGGNSRWCDKSDEDDWSKPLPPSERLEQELFSGGNTGINFEKYDDIPVEATGNNCPPHIESFSDVEMGEIIMGNIELTRYTRPTPVQKHAIPIIKEKRDLMACAQTGSGKTAAFLLPILSQIYSDGPGEALRAMKENGRYGRRKQYPISLVLAPTRELAVQIYEEARKFSYRSRVRPCVVYGGADIGQQIRDLERGCHLLVATPGRLVDMMERGKIGLDFCKYLVLDEADRMLDMGFEPQIRRIVEQDTMPPKGVRHTMMFSATFPKEIQMLARDFLDEYIFLAVGRVGSTSENITQKVVWVEESDKRSFLLDLLNATGKDSLTLVFVETKKGADSLEDFLYHEGYACTSIHGDRSQRDREEALHQFRSGKSPILVATAVAARGLDISNVKHVINFDLPSDIEEYVHRIGRTGRVGNLGLATSFFNERNINITKDLLDLLVEAKQEVPSWLENMAYEHHYKGSSRGRSKSSRFSGGFGARDYRQSSGASSSSFSSSRASSSRSGGGGHGSSRGFGGGGYGGFYNSDGYGGNYNSQGVDWWGN
B4: SYDM_HUMAN (protein, UniProt Q6PI48 48-645, looked up)
Aspartate--tRNA ligase, …: VVRTNTCGELRSSHLGQEVTLCGWIQYRRQNTFLVLRDFDGLVQVIIPQDESAASVKKILCEAPVESVVQVSGTVISRPAGQENPKMPTGEIEIKVKTAELLNACKKLPFEIKNFVKKTEALRLQYRYLDLRSFQMQYNLRLRSQMVMKMREYLCNLHGFVDIETPTLFKRTPGGAKEFLVPSREPGKFYSLPQSPQQFKQLLMVGGLDRYFQVARCYRDEGSRPDRQPEFTQIDIEMSFVDQTGIQSLIEGLLQYSWPNDKDPVVVPFPTMTFAEVLATYGTDKPDTRFGMKIIDISDVFRNTEIGFLQDALSKPHGTVKAICIPEGAKYLKRKDIESIRNFAADHFNQEILPVFLNANRNWNSPVANFIMESQRLELIRLMETQEEDVVLLTAGEHNKACSLLGKLRLECADLLETRGVVLRDPTLFSFLWVVDFPLFLPKEENPRELESAHHPFTAPHPSDIHLLYTEPKKARSQHYDLVLNGNEIGGGSIRIHNAELQRYILATLLKEDVKMLSHLLQALDYGAPPHGGIALGLDRLICLVTGSPSIRDVIAFPKSFRGHDLMSNTPDSVPPEELKPYHIRVSKPTDSKAERAH
B5: SND1_HUMAN (protein, UniProt Q7KZF4 2-910, looked up)
Staphylococcal nuclease …: ASSAQSGGSSGGPAVPTVQRGIIKMVLSGCAIIVRGQPRGGPPPERQINLSNIRAGNLARRAAATQPDAKDTPDEPWAFPAREFLRKKLIGKEVCFTIENKTPQGREYGMIYLGKDTNGENIAESLVAEGLATRREGMRANNPEQNRLSECEEQAKAAKKGMWSEGNGSHTIRDLKYTIENPRHFVDSHHQKPVNAIIEHVRDGSVVRALLLPDYYLVTVMLSGIKCPTFRREADGSETPEPFAAEAKFFTESRLLQRDVQIILESCHNQNILGTILHPNGNITELLLKEGFARCVDWSIAVYTRGAEKLRAAERFAKERRLRIWRDYVAPTANLDQKDKQFVAKVMQVLNADAIVVKLNSGDYKTIHLSSIRPPRLEGENTQDKNKKLRPLYDIPYMFEAREFLRKKLIGKKVNVTVDYIRPASPATETVPAFSERTCATVTIGGINIAEALVSKGLATVIRYRQDDDQRSSHYDELLAAEARAIKNGKGLHSKKEVPIHRVADISGDTQKAKQFLPFLQRAGRSEAVVEYVFSGSRLKLYLPKETCLITFLLAGIECPRGARNLPGLVQEGEPFSEEATLFTKELVLQREVEVEVESMDKAGNFIGWLHIDGANLSVLLVEHALSKVHFTAERSSYYKSLLSAEEAAKQKKEKVWAHYEEQPVEEVMPVLEEKERSASYKPVFVTEITDDLHFYVQDVETGTQLEKLMENMRNDIASHPPVEGSYAPRRGEFCIAKFVDGEWYRARVEKVESPAKIHVFYIDYGNREVLPSTRLGTLSPAFSTRVLPAQATEYAFAFIQVPQDDDARTDAVDSVVRDIQNTQCLLNVEHLSAGCPHVTLQFADSKGDVGLGLVKEGLVMVEVRKEKQFQKVITEYLNAQESAKSARLNLWRYGDFRADDADEFGYSR
B6: TOP1_HUMAN (protein, UniProt P11387 2-765, looked up)
DNA topoisomerase 1: SGDHLHNDSQIEADFRLNDSHKHKDKHKDREHRHKEHKKEKDREKSKHSNSEHKDSEKKHKEKEKTKHKDGSSEKHKDKHKDRDKEKRKEEKVRASGDAKIKKEKENGFSSPPQIKDEPEDDGYFVPPKEDIKPLKRPRDEDDADYKPKKIKTEDTKKEKKRKLEEEEDGKLKKPKNKDKDKKVPEPDNKKKKPKKEEEQKWKWWEEERYPEGIKWKFLEHKGPVFAPPYEPLPENVKFYYDGKVMKLSPKAEEVATFFAKMLDHEYTTKEIFRKNFFKDWRKEMTNEEKNIITNLSKCDFTQMSQYFKAQTEARKQMSKEEKLKIKEENEKLLKEYGFCIMDNHKERIANFKIEPPGLFRGRGNHPKMGMLKRRIMPEDIIINCSKDAKVPSPPPGHKWKEVRHDNKVTWLVSWTENIQGSIKYIMLNPSSRIKGEKDWQKYETARRLKKCVDKIRNQYREDWKSKEMKVRQRAVALYFIDKLALRAGNEKEEGETADTVGCCSLRVEHINLHPELDGQEYVVEFDFLGKDSIRYYNKVPVEKRVFKNLQLFMENKQPEDDLFDRLNTGILNKHLQDLMEGLTAKVFRTYNASITLQQQLKELTAPDENIPAKILSYNRANRAVAILCNHQRAPPKTFEKSMMNLQTKIDAKKEQLADARRDLKSAKADAKVMKDAKTKKVVESKKKAVQRLEEQLMKLEVQATDREENKQIALGTSKLNYLDPRITVAWCKKWGVPIEKIYNKTQREKFAWAIDMADEDYEF
B7: ACON_HUMAN (protein, UniProt Q99798 28-780, looked up)
Aconitate hydratase, …: QRAKVAMSHFEPNEYIHYDLLEKNINIVRKRLNRPLTLSEKIVYGHLDDPASQEIERGKSYLRLRPDRVAMQDATAQMAMLQFISSGLSKVAVPSTIHCDHLIEAQVGGEKDLRRAKDINQEVYNFLATAGAKYGVGFWKPGSGIIHQIILENYAYPGVLLIGTDSHTPNGGGLGGICIGVGGADAVDVMAGIPWELKCPKVIGVKLTGSLSGWSSPKDVILKVAGILTVKGGTGAIVEYHGPGVDSISCTGMATICNMGAEIGATTSVFPYNHRMKKYLSKTGREDIANLADEFKDHLVPDPGCHYDQLIEINLSELKPHINGPFTPDLAHPVAEVGKVAEKEGWPLDIRVGLIGSCTNSSYEDMGRSAAVAKQALAHGLKCKSQFTITPGSEQIRATIERDGYAQILRDLGGIVLANACGPCIGQWDRKDIKKGEKNTIVTSYNRNFTGRNDANPETHAFVTSPEIVTALAIAGTLKFNPETDYLTGTDGKKFRLEAPDADELPKGEFDPGQDTYQHPPKDSSGQHVDVSPTSQRLQLLEPFDKWDGKDLEDLQILIKVKGKCTTDHISAAGPWLKFRGHLDNISNNLLIGAINIENGKANSVRNAVTQEFGPVPDTARYYKKHGIRWVVIGDENYGEGSSREHAALEPRHLGGRAIITKSFARIHETNLKKQGLLPLTFADPADYNKIHPVDKLTIQGLKDFTPGKPLKCIIKHPNGTQETILLNHTFNETQIEWFRAGSALNRMKELQQ
B8: HXK1_HUMAN (protein, UniProt P19367 1-917, looked up)
Hexokinase-1: MIAAQLLAYYFTELKDDQVKKIDKYLYAMRLSDETLIDIMTRFRKEMKNGLSRDFNPTATVKMLPTFVRSIPDGSEKGDFIALDLGGSSFRILRVQVNHEKNQNVHMESEVYDTPENIVHGSGSQLFDHVAECLGDFMEKRKIKDKKLPVGFTFSFPCQQSKIDEAILITWTKRFKASGVEGADVVKLLNKAIKKRGDYDANIVAVVNDTVGTMMTCGYDDQHCEVGLIIGTGTNACYMEELRHIDLVEGDEGRMCINTEWGAFGDDGSLEDIRTEFDREIDRGSLNPGKQLFEKMVSGMYLGELVRLILVKMAKEGLLFEGRITPELLTRGKFNTSDVSAIEKNKEGLHNAKEILTRLGVEPSDDDCVSVQHVCTIVSFRSANLVAATLGAILNRLRDNKGTPRLRTTVGVDGSLYKTHPQYSRRFHKTLRRLVPDSDVRFLLSESGSGKGAAMVTAVAYRLAEQHRQIEETLAHFHLTKDMLLEVKKRMRAEMELGLRKQTHNNAVVKMLPSFVRRTPDGTENGDFLALDLGGTNFRVLLVKIRSGKKRTVEMHNKIYAIPIEIMQGTGEELFDHIVSCISDFLDYMGIKGPRMPLGFTFSFPCQQTSLDAGILITWTKGFKATDCVGHDVVTLLRDAIKRREEFDLDVVAVVNDTVGTMMTCAYEEPTCEVGLIVGTGSNACYMEEMKNVEMVEGDQGQMCINMEWGAFGDNGCLDDIRTHYDRLVDEYSLNAGKQRYEKMISGMYLGEIVRNILIDFTKKGFLFRGQISETLKTRGIFETKFLSQIESDRLALLQVRAILQQLGLNSTCDDSILVKTVCGVVSRRAAQLCGAGMAAVVDKIRENRGLDRLNVTVGVDGTLYKLHPHFSRIMHQTVKELSPKCNVSFLLSEDGSGKGAALITAVGVRLRTEASS

What follows are molecules tested on KDM4A-I71AzF (assay: CASI: photo-crosslinking with HEK293T cell extracts, StrepTactin enrichment and LC-MS/MS proteomics). Settings: sheet "Final results but with 0.01".
Type: binding, human
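Further: lysates from HEK293T cells pretreated with a KDM4 inhibitor to raise proteome methylation, affinity-purified after ±UV, gel-resolved, trypsin-digested, with exclusive unique peptides per protein averaged per condition.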

| Molecule | Fold change (+UV/-UV) |
| --- | --- |
| B1 | 1 |
| B2 | 0 |
| B3 | 0.7778 |
| B4 | 1.2 |
| B5 | 1.5 |
| B6 | 0 |
| B7 | 0.4 |
| B8 | 1 |
